Measured values from US8460664 (ACADEMIA SINICA, dated 2013).
One block for each binder: values may come before it.

Experiments:
[1] = biological target: mIgE.FcL on transfected Ramos cells (human, UniProt P01854 104-546, limits assumed); experiment: cell-based or functional assay
[2] = biological target: T1, mIgE.FcS on transfected Ramos cells (human, UniProt P01854-3 104-494, limits assumed); experiment: flow cytometry, hybridoma supernatants
T1 construct: domain: CH2 domain through the cytoplasmic end of mεS (CH2-CM), on cells; Lacks the CεmX domain; It forms complexes with the native coreceptors of Ramos cells; also called Ramos cells expressing mIgE.FcS; mεS(CH2-CM)
T1 sequence (P01854 other isoform, or with tags, fused parts or gaps limits assumed): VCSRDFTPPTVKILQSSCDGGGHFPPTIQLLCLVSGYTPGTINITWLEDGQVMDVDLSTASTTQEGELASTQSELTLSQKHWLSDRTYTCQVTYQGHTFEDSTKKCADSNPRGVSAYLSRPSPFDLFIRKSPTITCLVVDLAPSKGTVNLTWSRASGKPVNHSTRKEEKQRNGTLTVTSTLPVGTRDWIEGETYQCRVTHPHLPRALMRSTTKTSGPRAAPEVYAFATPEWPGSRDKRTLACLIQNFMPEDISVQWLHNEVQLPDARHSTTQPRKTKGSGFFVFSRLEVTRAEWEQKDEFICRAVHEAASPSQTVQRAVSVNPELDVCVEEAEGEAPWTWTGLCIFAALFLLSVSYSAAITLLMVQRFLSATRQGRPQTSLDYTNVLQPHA
Excerpt: (§2) We further tested the ability of various CεmX-specific monoclonal antibodies to bind to CHO and Ramos cell lines that were transfected with either recombinant DNA encoding mε_{L(CH2-CM)} or mε_{S(CH2-CM)}. […] The transfected two Ramos cell lines respectively produced mIgE.Fc_L or mIgE.Fc_S, both of which form complexes with their native coreceptors. To investigate the binding of anti-CεmX mAbs to native CεmX, CHO or Ramos cells expressing mIgE.Fc_L or mIgE.Fc_S were resuspended in FACS buffer [PBS, 1% FBS, 0.1% sodium azide, and 2 mM EDTA (pH 8.0)] at a cell density of 10^7 cells/ml. 10^6 cells were then incubated for 30 min on ice with 100 μl of hybridoma supernatants, followed by washing with FACS buffer. Bound antibodies were detected by incubation for 30 minutes on ice with FITC-labeled rabbit F(ab')_2 fragment specific for mouse IgG (AbD Secrotec), followed by washing twice with FACS buffer prior to analysis. Flow cytometry experiments were performed using a FACSCanto II flow cytometer (BD Bioscience) and analyzed using FCSExpress software (De Novo Software).

[3] = biological target: T2, mIgE.FcS on transfected CHO cells (human, UniProt P01854-3 104-494, limits assumed); experiment: flow cytometry, hybridoma supernatants
T2 construct: domain: CH2 domain through the cytoplasmic end of mεS (CH2-CM), on cells; Lacks the CεmX domain; No coreceptors are present in CHO cells; also called CHO cells expressing mIgE.FcS; mεS(CH2-CM)
T2 sequence (P01854 other isoform, or with tags, fused parts or gaps limits assumed): as above
Excerpt: as §2

P3 peptide = biological target: T3, P3 peptide (human); experiment: ELISA on coated peptide (500 ng/well)
T3 peptide: GAGRADWPGPPELDV
Experimental: (§1) To explore the specificity of anti-CεmX mAbs to CεmX, the various CεmX-specific clones were then tested for reactivity with 3 synthetic peptides, representing 3 consecutive segments of CεmX, divided by a C residue located at residue #18 and a CHC segment at residues #39-41. Specifically, P1 peptide contains the last 4 amino acid residues of CH4 of Mε and first 17 amino acid residues (#1-17), namely, […] (SEQ ID NO:2), of CεmX; P2 peptide contains 20 amino acid residues #19-38, namely, […] (SEQ ID NO:3), of CεmX; P3 peptide contains the terminal 11 amino acid residues (#42-52), namely, […]_(SEQ ID NO:4), of CεmX and first 4 amino acid residues of the consecutive migis region, namely, the N-terminal extracellular region of the membrane anchor peptide of Mε chain. All peptides were synthesized at Genomics Research Center, Academia Sinica (Taipei, Taiwan). The peptides were reconstituted with PBS at a concentration of 10 mg/ml. All peptides were coated on 96-well MaxiSorp plates at 500 ng/well in 0.1M NaCO_3 (pH 9.6) at 4° C. overnight. Coated wells were blocked by 200 μl/well of 1% BSA in PBS at room temperature for 1 hour. Plates were washed three times with 200 μl/well of PBS with 0.05% Tween-20, followed by adding 100 μl of 1 μg/ml anti-CεmX mAbs to wells.

P1 peptide = biological target: T4, P1 peptide (human); experiment: ELISA, 1 µg/ml antibody on coated peptide (500 ng/well)
T4 construct: Synthetic peptide
T4 peptide: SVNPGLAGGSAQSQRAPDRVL
Experimental: as §1

Chain of mIgE.FcL on transfected Ramos cells (P01854 104-546 limits assumed): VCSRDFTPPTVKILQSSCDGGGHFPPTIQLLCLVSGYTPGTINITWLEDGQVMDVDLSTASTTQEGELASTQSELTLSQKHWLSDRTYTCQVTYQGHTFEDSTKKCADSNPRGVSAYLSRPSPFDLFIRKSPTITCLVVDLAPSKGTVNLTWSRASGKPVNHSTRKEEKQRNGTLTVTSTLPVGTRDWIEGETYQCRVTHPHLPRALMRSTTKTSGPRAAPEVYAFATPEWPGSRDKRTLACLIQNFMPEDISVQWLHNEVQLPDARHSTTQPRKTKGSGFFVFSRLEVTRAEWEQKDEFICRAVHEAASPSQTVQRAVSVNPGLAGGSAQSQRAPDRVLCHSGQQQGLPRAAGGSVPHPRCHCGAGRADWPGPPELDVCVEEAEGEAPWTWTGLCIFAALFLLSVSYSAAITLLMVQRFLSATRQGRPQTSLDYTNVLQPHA

ADCC, specific lysis at an E/T ratio of 50 (antibody 1 µg/ml, PBMC effectors) [1]: ≤ 60%
B1: chimeric 4B12 (antibody, V domains shown)
VH: DVQLQESGPGLVKPSQSLSLTCTVTGYSITSDYAWNWIRQFPGNKLEWMGSISYSGITGYNPSLKSRISVTRDTSKNQFFLQLNSVTTEDTATYYCARMGYDGLAYWGHGTTVTVSA
VL: DVLMTQTPLSLPVSLGDQASISCRSSQSIVHSNGNTYLEWYLQKPGQSPKLLIYKVSNRFSGVPDRFSGSGSGTDFTFKISRVEAEDLGVYYCFQGSHVPPTFGGGTKLEIKR

binding result [2]: no binding | binding result [3]: no binding | binding result (P3 peptide): no binding (tested: 1 µg/ml) | binding result (P1 peptide): binds
B2: mouse monoclonal antibody 4B12 (antibody, V domains shown)
VH: B1 VH
VL: B1 VL
notes: Mouse hybridoma IgG, detected with anti-mouse IgG; also called parental mouse 4B12
